The values below come from the supplement of paper PMC5998384.

Data set [1] concerns HeLa Kyoto. Nature of the data set: solubility in G1/S (NP-40 vs SDS abundance) (log2 ratio); higher = more soluble. The settings on record: cell cycle stage: G1/S.
In data set [2] the test system is HeLa Kyoto. Nature of the data set: melting temperature (median over replicates), in situ; higher = more thermally stable.
In data set [3] the test system is HeLa Kyoto. Put plainly: solubility change mitosis vs G1/S (difference of NP-40 vs SDS log2 ratios) (log2 ratio difference); higher = more soluble in mitosis.
For data set [4], the system named is HeLa Kyoto. Put plainly: thermal stability score vs G1/S (z-score of summed log2 fold changes over temperatures); higher = more thermally stable than in G1/S.
Setting [5] is: cell cycle stage: early G1 (4.5 h after nocodazole release).
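Throughout, for melting temperature (median over replicates), in situ: HeLa Kyoto cells synchronized by double thymidine or nocodazole block, proteins quantified by TMT10plex mass spectrometry, three independent biological replicates.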
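Throughout, for solubility change mitosis vs G1/S (difference of NP-40 vs SDS log2 ratios): synchronized HeLa Kyoto cells (double thymidine block for G1/S, nocodazole release for mitosis), protein amounts in NP-40 versus SDS lysates quantified by mass spectrometry, three biological replicates.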
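Throughout, for solubility in G1/S (NP-40 vs SDS abundance): HeLa Kyoto cells arrested at G1/S by double thymidine block, proteins quantified by TMT10plex mass spectrometry in mild NP-40 versus SDS extracts, three biological replicates.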
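Throughout, for thermal stability score vs G1/S (z-score of summed log2 fold changes over temperatures): synchronized HeLa Kyoto cells, proteins quantified by TMT10plex mass spectrometry, three biological replicates, mitosis taken 0.5 h after nocodazole release, G1/S directly after double thymidine block.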

CASKIN2, sequence (chain, as listed by the source): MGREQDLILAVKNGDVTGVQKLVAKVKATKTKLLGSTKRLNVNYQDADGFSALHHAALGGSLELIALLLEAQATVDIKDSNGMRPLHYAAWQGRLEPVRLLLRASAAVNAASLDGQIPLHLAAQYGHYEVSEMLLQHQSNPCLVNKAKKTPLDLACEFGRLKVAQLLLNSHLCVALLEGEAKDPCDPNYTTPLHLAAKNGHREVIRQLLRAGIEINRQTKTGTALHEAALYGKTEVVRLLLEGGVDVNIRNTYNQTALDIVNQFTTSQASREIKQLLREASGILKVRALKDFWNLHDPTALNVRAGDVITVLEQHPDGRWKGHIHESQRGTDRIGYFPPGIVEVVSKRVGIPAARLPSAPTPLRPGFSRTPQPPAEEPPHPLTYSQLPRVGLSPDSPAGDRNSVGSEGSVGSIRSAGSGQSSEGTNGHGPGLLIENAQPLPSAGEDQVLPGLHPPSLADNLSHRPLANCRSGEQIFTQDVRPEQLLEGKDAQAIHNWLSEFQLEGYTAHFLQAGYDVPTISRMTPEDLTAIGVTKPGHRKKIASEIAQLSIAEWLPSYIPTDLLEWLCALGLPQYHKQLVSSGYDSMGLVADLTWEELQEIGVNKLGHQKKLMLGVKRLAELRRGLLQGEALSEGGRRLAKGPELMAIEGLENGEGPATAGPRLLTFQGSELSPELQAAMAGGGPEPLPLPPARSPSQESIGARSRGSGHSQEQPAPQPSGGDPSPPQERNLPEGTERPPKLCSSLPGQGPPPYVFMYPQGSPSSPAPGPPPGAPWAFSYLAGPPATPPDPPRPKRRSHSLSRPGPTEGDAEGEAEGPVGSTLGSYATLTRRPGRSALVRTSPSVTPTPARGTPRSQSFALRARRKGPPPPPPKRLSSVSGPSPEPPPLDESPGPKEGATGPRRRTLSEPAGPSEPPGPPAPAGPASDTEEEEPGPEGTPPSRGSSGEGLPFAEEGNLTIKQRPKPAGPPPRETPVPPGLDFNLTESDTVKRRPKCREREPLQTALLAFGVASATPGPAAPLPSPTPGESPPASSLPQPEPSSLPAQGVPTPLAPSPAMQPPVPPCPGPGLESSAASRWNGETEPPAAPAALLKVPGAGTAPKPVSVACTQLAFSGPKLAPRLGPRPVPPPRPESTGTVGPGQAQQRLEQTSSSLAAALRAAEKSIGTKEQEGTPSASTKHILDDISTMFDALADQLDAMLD

Consider “MSQPPPPPPPLPPPPPPPEAPQTPSSLASAAASGGLLKRRDRRILSGSCPDPKCQARLFFPASGSVSIECTECGQRHEQQQLLGVEEVTDPDVVLHNLLRNALLGVTGAPKKNTELVKVMGLSNYHCKLLSPILARYGMDKQTGRAKLLRDMNQGELFDCALLGDRAFLIEPEHVNTVGYGKDRSGSLLYLHDTLEDIKRANKSQECLIPVHVDGDGHCLVHAVSRALVGRELFWHALRENLKQHFQQHLARYQALFHDFIDAAEWEDIINECDPLFVPPEGVPLGLRNIHIFGLANVLHRPIILLDSLSGMRSSGDYSATFLPGLIPAEKCTGKDGHLNKPICIAWSSSGRNHYIPLVGIKGAALPKLPMNLLPKAWGVPQDLIKKYIKLEEDGGCVIGGDRSLQDKYLLRLVAAMEEVFMDKHGIHPSLVADVHQYFYRRTGVIGVQPEEVTAAAKKAVMDNRLHKCLLCGALSELHVPPEWLAPGGKLYNLAKSTHGQLRTDKNYSFPLNNLVCSYDSVKDVLVPDYGMSNLTACNWCHGTSVRKVRGDGSIVYLDGDRTNSRSTGGKCGCGFKHFWDGKEYDNLPEAFPITLEWGGRVVRETVYWFQYESDSSLNSNVYDVAMKLVTKHFPGEFGSEILVQKVVHTILHQTAKKNPDDYTPVNIDGAHAQRVGDVQGQESESQLPTKIILTGQKTKTLHKEELNMSKTERTIQQNITEQASVMQKRKTEKLKQEQKGQPRTVSPSTIRDGPSSAPATPTKAPYSPTTSKEKKIRITTNDGRQSMVTLKSSTTFFELQESIAREFNIPPYLQCIRYGFPPKELMPPQAGMEKEPVPLQHGDRITIEILKSKAEGGQSAAAHSAHTVKQEDIAVTGKLSSKELQEQAEKEMYSLCLLATLMGEDVWSYAKGLPHMFQQGGVFYSIMKKTMGMADGKHCTFPHLPGKTFVYNASEDRLELCVDAAGHFPIGPDVEDLVKEAVSQVRAEATTRSRESSPSHGLLKLGSGGVVKKKSEQLHNVTAFQGKGHSLGTASGNPHLDPRARETSVVRKHNTGTDFSNSSTKTEPSVFTASSSNSELIRIAPGVVTMRDGRQLDPDLVEAQRKKLQEMVSSIQASMDRHLRDQSTEQSPSDLPQRKTEVVSSSAKSGSLQTGLPESFPLTGGTENLNTETTDGCVADALGAAFATRSKAQRGNSVEELEEMDSQDAEMTNTTEPMDHS [VCPIP1]”, for which the “solubility in G1/S (log2)” value in the data set with HeLa Kyoto [1] is -0.111. In addition, the melting temperature in the data set on HeLa Kyoto [2] (cell cycle stage: G1/S) came out at 48.3 °C; in the data set with HeLa Kyoto [2] (cell cycle stage: mitosis), 48.8 °C. Besides, in the data set on HeLa Kyoto [3], the “solubility change mitosis (log2)” value was -0.0432. For the same substance, the figures for the thermal stability score in the data set on HeLa Kyoto [4] (setting [5]) and in the data set on HeLa Kyoto [4] (cell cycle stage: mitosis) were 1.21 and 1.02, respectively.

With CASKIN2, the “solubility in G1/S (log2)” value in the data set on HeLa Kyoto [1] was determined as 0.412. Also, the melting temperature came out at 49.4 °C in the data set on HeLa Kyoto [2] (cell cycle stage: G1/S) and 48.8 °C with HeLa Kyoto [2] (cell cycle stage: mitosis). Besides, the “solubility change mitosis (log2)” value in the data set with HeLa Kyoto [3] is -0.0911. In addition, the results for the thermal stability score in the data set with HeLa Kyoto [4] (setting [5]) and in the data set on HeLa Kyoto [4] (cell cycle stage: mitosis) were 0.8 and 1.68, respectively.

Turning to “MARENGESSSSWKKQAEDIKKIFEFKETLGTGAFSEVVLAEEKATGKLFAVKCIPKKALKGKESSIENEIAVLRKIKHENIVALEDIYESPNHLYLVMQLVSGGELFDRIVEKGFYTEKDASTLIRQVLDAVYYLHRMGIVHRDLKPENLLYYSQDEESKIMISDFGLSKMEGKGDVMSTACGTPGYVAPEVLAQKPYSKAVDCWSIGVIAYILLCGYPPFYDENDSKLFEQILKAEYEFDSPYWDDISDSAKDFIRNLMEKDPNKRYTCEQAARHPWIAGDTALNKNIHESVSAQIRKNFAKSKWRQAFNATAVVRHMRKLHLGSSLDSSNASVSSSLSLASQKDCLAPSTLCSFISSSSGVSGVGAERRPRPTTVTAVHSGSK [CAMK1D]”, the “solubility in G1/S (log2)” value with HeLa Kyoto [1] is 0.0619. For the same substance, the results for the melting temperature with HeLa Kyoto [2] (cell cycle stage: G1/S) and in the data set on HeLa Kyoto [2] (cell cycle stage: mitosis) were 49.8 °C and 50.3 °C, respectively. In addition, the “solubility change mitosis (log2)” value in the data set with HeLa Kyoto [3] was -0.0784. For the same substance, the thermal stability score in the data set on HeLa Kyoto [4] (setting [5]) came out at 0.0756; with HeLa Kyoto [4] (cell cycle stage: mitosis), 0.252.

For “MGFLQLLVVAVLASEHRVAGAAEVFGNSSEGLIEFSVGKFRYFELNRPFPEEAILHDISSNVTFLIFQIHSQYQNTTVSFSPTLLSNSSETGTASGLVFILRPEQSTCTWYLGTSGIQPVQNMAILLSYSERDPVPGGCNLEFDLDIDPNIYLEYNFFETTIKFAPANLGYARGVDPPPCDAGTDQDSRWRLQYDVYQYFLPENDLTEEMLLKHLQRMVSVPQVKASALKVVTLTANDKTSVSFSSLPGQGVIYNVIVWDPFLNTSAAYIPAHTYACSFEAGEGSCASLGRVSSKVFFTLFALLGFFICFFGHRFWKTELFFIGFIIMGFFFYILITRLTPIKYDVNLILTAVTGSVGGMFLVAVWWRFGILSICMLCVGLVLGFLISSVTFFTPLGNLKIFHDDGVFWVTFSCIAILIPVVFMGCLRILNILTCGVIGSYSVVLAIDSYWSTSLSYITLNVLKRALNKDFHRAFTNVPFQTNDFIILAVWGMLAVSGITLQIRRERGRPFFPPHPYKLWKQERERRVTNILDPSYHIPPLRERLYGRLTQIKGLFQKEQPAGERTPLLL [TM7SF3]”, the “solubility in G1/S (log2)” value in the data set with HeLa Kyoto [1] is -0.147. The melting temperature in the data set on HeLa Kyoto [2] (cell cycle stage: G1/S) was 56.8 °C; in the data set with HeLa Kyoto [2] (cell cycle stage: mitosis), 55.3 °C. Moreover, the “solubility change mitosis (log2)” value in the data set with HeLa Kyoto [3] is -0.244. For the same substance, the thermal stability score in the data set on HeLa Kyoto [4] (setting [5]) is -2.81; in the data set on HeLa Kyoto [4] (cell cycle stage: mitosis) it was -4.36.

Turning to “MEGPGLGSQCRNHSHGPHPPGFGRYGICAHENKELANAREALPLIEDSSNCDIVKATQYGIFERCKELVEAGYDVRQPDKENVSLLHWAAINNRLDLVKFYISKGAVVDQLGGDLNSTPLHWAIRQGHLPMVILLLQHGADPTLIDGEGFSSIHLAVLFQHMPIIAYLISKGQSVNMTDVNGQTPLMLSAHKVIGPEPTGFLLKFNPSLNVVDKIHQNTPLHWAVAAGNVNAVDKLLEAGSSLDIQNVKGETPLDMALQNKNQLIIHMLKTEAKMRANQKFRLWRWLQKCELFLLLMLSVITMWAIGYILDFNSDSWLLKGCLLVTLFFLTSLFPRFLVGYKNLVYLPTAFLLSSVFWIFMTWFILFFPDLAGAPFYFSFIFSIVAFLYFFYKTWATDPGFTKASEEEKKVNIITLAETGSLDFRTFCTSCLIRKPLRSLHCHVCNCCVARYDQHCLWTGRCIGFGNHHYYIFFLFFLSMVCGWIIYGSFIYLSSHCATTFKEDGLWTYLNQIVACSPWVLYILMLATFHFSWSTFLLLNQLFQIAFLGLTSHERISLQKQSKHMKQTLSLRKTPYNLGFMQNLADFFQCGCFGLVKPCVVDWTSQYTMVFHPAREKVLRSV [ZDHHC13]”, in the data set with HeLa Kyoto [1], the “solubility in G1/S (log2)” value came out at 0.0826. The melting temperature came to 51.6 °C in the data set with HeLa Kyoto [2] (cell cycle stage: G1/S) and 51.4 °C in the data set on HeLa Kyoto [2] (cell cycle stage: mitosis). Besides, the “solubility change mitosis (log2)” value with HeLa Kyoto [3] was -0.158. Further, the results for the thermal stability score in the data set with HeLa Kyoto [4] (setting [5]) and in the data set on HeLa Kyoto [4] (cell cycle stage: mitosis) were -0.948 and -1.02, respectively.

As for “MWTFLGIATFTYFYKKFGDFITLANREVLLCVLVFLSLGLVLSYRCRHRNGGLLGRQQSGSQFALFSDILSGLPFIGFFWAKSPPESENKEQLEARRRRKGTNISETSLIGTAACTSTSSQNDPEVIIVGAGVLGSALAAVLSRDGRKVTVIERDLKEPDRIVGEFLQPGGYHVLKDLGLGDTVEGLDAQVVNGYMIHDQESKSEVQIPYPLSENNQVQSGRAFHHGRFIMSLRKAAMAEPNAKFIEGVVLQLLEEDDVVMGVQYKDKETGDIKELHAPLTVVADGLFSKFRKSLVSNKVSVSSHFVGFLMKNAPQFKANHAELILANPSPVLIYQISSSETRVLVDIRGEMPRNLREYMVEKIYPQIPDHLKEPFLEATDNSHLRSMPASFLPPSSVKKRGVLLLGDAYNMRHPLTGGGMTVAFKDIKLWRKLLKGIPDLYDDAAIFEAKKSFYWARKTSHSFVVNILAQALYELFSATDDSLHQLRKACFLYFKLGGECVAGPVGLLSVLSPNPLVLIGHFFAVAIYAVYFCFKSEPWITKPRALLSSGAVLYKACSVIFPLIYSEMKYMVH [SQLE]”, the “solubility in G1/S (log2)” value in the data set with HeLa Kyoto [1] is -0.21. In addition, the melting temperature in the data set on HeLa Kyoto [2] (cell cycle stage: G1/S) was found to be 52.7 °C; in the data set with HeLa Kyoto [2] (cell cycle stage: mitosis) it was 53.3 °C. Besides, the “solubility change mitosis (log2)” value with HeLa Kyoto [3] is -0.0643. For the same substance, the thermal stability score is -0.599 in the data set on HeLa Kyoto [4] (setting [5]) and -0.00194 in the data set on HeLa Kyoto [4] (cell cycle stage: mitosis).

For the substance “MRSRVAVRACHKVCRCLLSGFGGRVDAGQPELLTERSSPKGGHVKSHAELEGNGEHPEAPGSGEGSEALLEICQRRHFLSGSKQQLSRDSLLSGCHPGFGPLGVELRKNLAAEWWTSVVVFREQVFPVDALHHKPGPLLPGDSAFRLVSAETLREILQDKELSKEQLVAFLENVLKTSGKLRENLLHGALEHYVNCLDLVNKRLPYGLAQIGVCFHPVFDTKQIRNGVKSIGEKTEASLVWFTPPRTSNQWLDFWLRHRLQWWRKFAMSPSNFSSSDCQDEEGRKGNKLYYNFPWGKELIETLWNLGDHELLHMYPGNVSKLHGRDGRKNVVPCVLSVNGDLDRGMLAYLYDSFQLTENSFTRKKNLHRKVLKLHPCLAPIKVALDVGRGPTLELRQVCQGLFNELLENGISVWPGYLETMQSSLEQLYSKYDEMSILFTVLVTETTLENGLIHLRSRDTTMKEMMHISKLKDFLIKYISSAKNV [POLG2]”, the “solubility in G1/S (log2)” value in the data set on HeLa Kyoto [1] is -0.0655. Moreover, the melting temperature in the data set with HeLa Kyoto [2] (cell cycle stage: mitosis) was 54.6 °C. Further, in the data set with HeLa Kyoto [3], the “solubility change mitosis (log2)” value was found to be 0.206. The thermal stability score in the data set on HeLa Kyoto [4] (setting [5]) came out at 0.753; with HeLa Kyoto [4] (cell cycle stage: mitosis) it was 1.26.

For the substance “MVGYDPKPDGRNNTKFQVAVAGSVSGLVTRALISPFDVIKIRFQLQHERLSRSDPSAKYHGILQASRQILQEEGPTAFWKGHVPAQILSIGYGAVQFLSFEMLTELVHRGSVYDAREFSVHFVCGGLAACMATLTVHPVDVLRTRFAAQGEPKVYNTLRHAVGTMYRSEGPQVFYKGLAPTLIAIFPYAGLQFSCYSSLKHLYKWAIPAEGKKNENLQNLLCGSGAGVISKTLTYPLDLFKKRLQVGGFEHARAAFGQVRRYKGLMDCAKQVLQKEGALGFFKGLSPSLLKAALSTGFMFFSYEFFCNVFHCMNRTASQR [SLC25A19]”, the “solubility in G1/S (log2)” value in the data set on HeLa Kyoto [1] is -0.155. Also, the melting temperature amounted to 56.4 °C with HeLa Kyoto [2] (cell cycle stage: G1/S) and 55.6 °C in the data set with HeLa Kyoto [2] (cell cycle stage: mitosis). The “solubility change mitosis (log2)” value with HeLa Kyoto [3] was -0.0971. For the same substance, the values for the thermal stability score in the data set with HeLa Kyoto [4] (setting [5]) and with HeLa Kyoto [4] (cell cycle stage: mitosis) were -0.746 and -1.27, respectively.

Regarding “MATKIDKEACRAAYNLVRDDGSAVIWVTFKYDGSTIVPGEQGAEYQHFIQQCTDDVRLFAFVRFTTGDAMSKRSKFALITWIGENVSGLQRAKTGTDKTLVKEVVQNFAKEFVISDRKELEEDFIKSELKKAGGANYDAQTE [COTL1]”, the “solubility in G1/S (log2)” value with HeLa Kyoto [1] is 0.108. The melting temperature worked out at 52.4 °C with HeLa Kyoto [2] (cell cycle stage: G1/S) and 52.8 °C in the data set with HeLa Kyoto [2] (cell cycle stage: mitosis). The “solubility change mitosis (log2)” value in the data set on HeLa Kyoto [3] was 0.0356. Also, the thermal stability score is 3.44 in the data set on HeLa Kyoto [4] (setting [5]) and 1.43 in the data set with HeLa Kyoto [4] (cell cycle stage: mitosis).
